In patent US20100093076A1, “SOLUBLE IL-27 RECEPTOR” (priority 2006, published 2010):
Several values for one entry are separate records, joined by “and”; a condition that tells them apart may be missing. Identical values can stand only once.

Experiments:
[1] = biological target: T1, single-chain mouse IL-27 (Mus musculus, UniProt O35228+Q8K3I6); assay: IL-27 inhibition of IL-2 production neutralized by IL-27RA Fc (third set of experiments); assay type: cell-based; conditions: + IL-27 (10 ng/ml)
T1 sequence (O35228+Q8K3I6 with tags, fused parts or gaps): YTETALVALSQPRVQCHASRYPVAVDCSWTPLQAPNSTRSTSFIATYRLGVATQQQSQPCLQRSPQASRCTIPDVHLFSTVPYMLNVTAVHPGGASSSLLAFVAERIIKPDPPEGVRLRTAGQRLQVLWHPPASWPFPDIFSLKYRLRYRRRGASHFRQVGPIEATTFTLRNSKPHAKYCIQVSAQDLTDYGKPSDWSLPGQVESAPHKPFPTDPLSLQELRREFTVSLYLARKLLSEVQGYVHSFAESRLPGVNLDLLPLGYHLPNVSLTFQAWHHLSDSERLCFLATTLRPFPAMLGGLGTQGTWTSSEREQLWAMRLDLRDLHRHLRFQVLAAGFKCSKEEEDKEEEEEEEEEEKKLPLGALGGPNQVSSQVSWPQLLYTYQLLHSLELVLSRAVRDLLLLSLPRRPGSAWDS
Procedure: Naïve mouse CD4 T-cells were isolated as described above. For testing of the neutralizing mAbs, the naïve CD4 T cells were preincubated for 30 minutes at 37 degrees C. with graded concentrations (60, 30, 15, 7.5, 3.75, 1.875.micro.g/ml) of either neutralizing rat anti-mouse IL27RA mAb (each mAb tested separately), rat IgG1 isotype control mAb, rat IgG2a isotype control mAb, or no mAb. […] The CD4 T cells (4×10^5/well) were then transferred to anti-CD3 coated tissue culture plates. Single-chain mouse IL-27 (10 ng/ml) was then added to the plates. Duplicate plates were set up for all experimental conditions. The plates were then cultured at 37 degrees for up to 72 hours.
For testing of the soluble receptor, single-chain mouse IL-27 (10 ng/ml) was preincubated for 30 minutes at 37 degrees C. with either IL27RAm(mFc1) (10.0 and 5.0.micro.g/ml), IL27RA-Fc5, mouse Fc1 protein (10.0 and 5.0.micro.g/ml), human Fc5 protein (10.0 and 5.0.micro.g/ml), or no recombinant protein in wells of the anti-CD3 coated plates. 4×10^5 CD4^+ CD62L high cells were added to the wells. Duplicate plates were set up for all experimental conditions. The plates were then cultured at 37 degrees for up to 72 hours. Cell supernatants were collected from one set of plates at 48 hours and from the duplicate set of plates at 72 hours. The supernatants were stored frozen at −80° C.

[2] = biological target: T2, mouse ligand (single-chain IL27: EBI3 linked to IL-27 p28) (Mus musculus, UniProt O35228+Q8K3I6); assay: Surface plasmon resonance (BIACORE 3000) kinetic rate and affinity constants; assay type: binding; conditions: SPR
T2 construct: purchased R&D Systems
T2 sequence (O35228+Q8K3I6 with tags, fused parts or gaps): T1 sequence (O35228+Q8K3I6 with tags, fused parts or gaps)
Procedure: Kinetic rate and affinity constant values for the mouse (IL27RAm(mFc1), Example 1) and human (IL27RA-Fc5, Example 2) soluble receptors were obtained by surface plasmon resonance (SPR) using an automated instrument (BIACORE 3000; Biacore International AB, Uppsala, Sweden). The mouse soluble receptor was tested against mouse ligand (lot A1418F), and the human soluble receptor was tested against both mouse (A1426F) and human (A1534F) ligands. For determination of the kinetic rate constants for the receptor-ligand interactions, the gp130 molecule was not included as part of the receptor complex.
The IL27 ligands used in this study were single-chain molecules comprising EBI3 connected by its C-terminus to the N-terminus of IL-27 p28 via a polypeptide linker. (R&D Systems) Each of the ligands included an amino-terminal peptide tag.
For the mouse IL27RA study, the soluble receptor was captured onto the chip surface by an isotype-specific anti-mouse Fc antibody (obtained from Jackson ImmunoResearch Laboratories, Inc., West Grove, Pa.) covalently immobilized to the chip (BIACORE CM5 chip) using the standard amine coupling protocol specified by the instrument manufacturer. For the human IL27RA studies, the soluble receptor was directly and covalently immobilized to the chip via the amine coupling protocol. In all studies, ligand was injected over the active (receptor-bound) surface at varying concentrations to obtain a series of binding curves.
Experimental conditions were optimized for determination of kinetic rate constant values. The molecular densities of the soluble receptor protein loaded onto the chip surface were targeted to obtain maximum IL27 binding levels (Rmax) of ≦20 RU. The analyte (ligand) was injected over the receptor surface at a flow rate of […] at a concentration range of approximately 0.05 to 10 nM, allowing for an association phase of 3 minutes and a dissociation phase of 10 minutes. […]
All data were assessed using software provided with the instrument (BIACORE Evaluation software v. 3.2). […]

IL-2 concentration ([1]; 48 hr, protein conc. 5 (μg/ml; Fc controls in molar equiv.)): 4021.15 pg/mL
IL-2 concentration ([1]; 48 hr, protein conc. 10 (μg/ml; Fc controls in molar equiv.), listed as mIL-27RA): 5215.59 pg/mL and 4922.26 pg/mL
IL-2 concentration ([1]; 72 hr, protein conc. 5 (μg/ml; Fc controls in molar equiv.)): 5744.95 pg/mL
IL-2 concentration ([1]; 72 hr, protein conc. 10 (μg/ml; Fc controls in molar equiv.), listed as mIL-27RA): 6704.62 pg/mL and 12186.7 pg/mL
ka ([2]; 1:1 binding model): 1e+07 M⁻¹ s⁻¹
kd ([2]; 1:1 binding model): 0.0012 s⁻¹
Kd ([2]; Kd=kd/ka): 120 pM
B1: IL-27RAm(mFc1): Extracellular domain of mouse IL27RA fused to a wild type BALB/c mouse gamma2a constant region Fc tag (protein)
chain: MNRLERVALARLETPRLEGLLELELESLEMSLELELEGTRPRHGSPRGPRLEQCYSVGPRLEGILENCSWGLPRLEGDLEGLTPRPRVLEYHQSQKYHPRNRVWGLVKVPRSKQSWVTIPRRGLQFTMADKLELEIWGTQKGRPRLEWSSVSVASNLEGLTQMKPRDTPRQIFSQVASPISGLGLATLEGLATVQWAPRPRVWPRPRQKALETCQFRYKGLCQAGLAWTRLEGLPRQLEKTDGLETPRVGLMQNLEGLPRGTCYQVSGRCQVGLNGYPRWGGLWSSPRLESFQTPRFLEDPRGLDVWVSGTVCGLTSGKRAALELEVWKDPRRPRCVQVTYTVWFGAGDITTTQGLGLVPRCCKSPRVPRAWMGLWAVVSPRGNSTSWVPRPRTNLESLEVCLEAPRGLSAPRCDVGVSSADGSPRGIKVTWKQGTARGSPRLEGLYVVASPWAQDGDSLEDKLENWTRLEPRPRGNLESTLELEPRGGLFKGGVPRYRITVTAVYSGGLEAAAPRSVWGFRGLGLLEVPRLEAGPRAVWRLEPRDDPRPRGTPRVVALAWGGLVPRRHQLERGQATHYTFCIQSRGLESTVCRNVSSQTQTATLEPRNLEHSGSFKLEWVTVSTVALAGQGPRPRGPRDLESLEHLEPRDNRIRWKALEPRWFLESLEWGLELELEMGCGLESLEASTRCLEQARCLEHWRHKLELEPRQWIWGLRVPRDPRANSNSGQPRYIKGLVSLEPRQPRPRKDGPRILEGLVGLGLVGLLEQPRVVGLSPRKASAPRIYSGYGLKHFLEPRTPRGLGLLEGLELEV
modifications: left off: a dimerising Fc or GST
notes: Extracellular domain of mouse IL27RA fused to a wild type BALB/c mouse gamma2a constant region Fc tag
